Assay results as given in the domain aggregation screens of Martell et al. (2025).

Experiment: soluble fraction after stress (log2 fold change); higher = more stays soluble; pooled small domains, quantitative proteomics
Conditions: stress: 50 degC
Method in brief: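 Each library was heated to 50°C as a stress step. The libraries, made up of small protein domains, were pooled and analysed at high throughput by quantitative proteomics. The reported value is the base-two logarithm of the fold change in each protein's soluble amount after stress, taken as a measure of aggregation propensity. The higher the value, the more protein stays in solution.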

Row | Sequence | soluble fraction (log2)
1 | HMNIIHNPSKNFIESDLNDLKEGMEIEHKKFGYGLIKSIDKTQNHQKAVVNFKLVGEKTLLLSFARLRIV | -2.75
2 | HMSATEPVHFDPNKSPEDMTVEELQAGILAKMANNGPVSDQMKKTVNENIWHDSLVNWLKSF | 0.0373
3 | HMVWINIRDLSDLFSKSGKSENSKNILDLQTLKIEKLLGGGQINTPYTIKVKQATPSAIEKVKQAGGEVIL | -0.0218
4 | HMVTLYDGFLSELRKRIPRGAELTNTLVDMLYIEREAVYRRLRGEVPFTFIEVMTVSKELGISLDNLAQA | -1.23
5 | HMQYDSYTVEEPAKLLDWLLAHLRQSRTKIKATLQGHGIKVNGKTVTQFDYPLEPGMKIRVSLTK | 0.159
6 | HMRMTKPLPFDLAAFRNEFGFTKSIIMQEVGVSRHIYDNVERTNATPPEFYDDFVSFFQRHGQ | -1.04
7 | HMNHTIEENDRVLILDPRGKKYLITVTNRVFHTNLGKLDISELIGKNYGDKIKSHMGKNFSILKPNLIDYI | -0.0858
8 | HMHSRLEDIPGIGPRRRAMLLRHFGGLAELKAAGVEEIARVEGINMALAQRLWRALHGVPDPT | -0.339
9 | HMDDNMNEQWKMILNSIAKKGSVTRQETEKILGIGQTRAHVLLKAMIHAGMIKAVGDGKKRRYVR | -1.01
10 | HMGKSDDSLAAEKFIQHVRKNGELSYEQAYRMVHAYFPDFRNFEGMVSGAVKSGYLILIQKSTGLFLRAKE | -0.882
11 | HMFGELTPDTAKRFLLTAREQEMASLIAQGLTNKEIAFRLGISEATVRTHIYNLFQKVGVQSRIELLNVLH | -0.289
12 | HMKVQEMTANSFLTQWEAGNVKTLDILPEGIIKGELNDGTKFQLYYSSAAGLIDDVKKNPEKFANTTVSEK | 0.129
13 | HMSEIVEEQNTKLKQAVSKLSKRQQEVLYLKFEEGLDYEQISKIMDLKYQSVRNLVSTAIIKIKEH | -2.16
14 | HMLVDWNYLEGKRGVTTTPLTPSGKARFGDDVVNVLSDGVLVSTGTPVRVLQVLGNRVLVEPLDG | 0.0957
15 | HMTGIKISVDRLQIGNYVKLPLNWKDHPFLFSSFAIKSQEEIDLIRRLGLKQVIMFPDKSSMPPKPV | -1.33
16 | HMDLHERISSVLLGTGKSNDELAQILGVNKNTISAYKNKHGDLKGIVLEGIVKHFDINPVWLLTGSGTR | -0.54
17 | HMGLVVIGTEAGYPAEKAGILAGDRIRKLNGAAVPDYDTFLTALAARKGEPSAIELERDGKTLEVTVSPL | 0.0119
18 | HMDEIDYSKYSITTSNRIINIDGVQSKVELFDVSGRSIQSTMVTGKFSSRPLNAGFYIIHVDGYSVKVSV | -0.889
19 | HMETYSGVERAAILVMYLERTLAKALLDHMNDEEVRRVGMAMASIDRVEGPDIERIVGDFVRELYEVS | -0.793
20 | HMNMTDVLVVNQTVRGGTQITESMLSVKKVDKSSLPDNYLKASLKDEVVGKYFDLGLTSGGVLTKDNISVS | 0.00597
21 | HMGETAFRYALPLDQGEALKRSHVIRQSISPDDALATRVTVLEDVLDQTLRQPVQAGEVLLEDHFTR | -0.00712
22 | HMLYEDVQVPNVRYWKSRDAKKQLEDLGLRVLTEHVNDAYIQSDQVIRTSPEIGDTLRTGDTVTLYVSDG | 0.185
23 | HMVDIIMDLLEAVAQARPADAFIKSLHIQYQERGGLSKKQLQGLYGKAAKTAGIPPGKLATLEAIILKRP | -1.38
24 | HMPEKNQITHLIRLIDDRDEFVRKRVREQLIKLGEDAIPFLEMAAKTENLEIQRIASEIIQAIIPRQ | -0.13
25 | HMGTSFEDIDRAVKSVRKPETDEAEKLHAGKTFKDIAETELFQKLTESFAGISDRVNEVIDLYTARAAE | 0.143
26 | HMTYQHQSIIHRRTRGAILTAAKELLAESGISGTNMIEIADRAQVSRASLYNHFRDKHEVFLALVES | -0.677
27 | HMSQEAKLAMPVTDLRLSARTLNALELANIRTVRDLVSHTEEQLLELRNFGETALAEVKEKLAALGLRLGM | 0.18
28 | HMGYQLSLEAQSQLKALGLTSEYITRILDEADNRQPIPGTSRTVYSLNGYQVEFSHSDQQVIRIARG | 0.0139
29 | HMGGLAEGTKITLQNTVNVRASMGEDAEKIGTAYAGEKVTVIMSYAEGWTKVTWNDKTGYIKTSLL | -0.634
30 | HMVPLGDLSKNERRAMELAATNGNVTTRALADDAQVTKRTASTTLRRLAKRGLLEWIGKGPSDPGQFYRIP | -0.123
